Values belong to the substance of their own block, whether it stands above or below them.
Key:
[1] = biological target: human immunoglobulin G preparation separated from human plasma (Gammagard, Baxter) (human); assay: SPR (Biacore 3000), human IgG on CM5 chip, ligand flowed at 16-128 nM, 1:1 fit, 25 C
[2] = biological target: Gamma globulin (Nichiyaku), used as a human IgG (human); assay: affinity chromatography, dynamic binding capacity at 5% breakthrough; ligand on cross-linked cellulose beads at 11.6 mg/mL-gel
[3] = biological target: Gamma globulin (Nichiyaku), used as a human IgG (human); assay: affinity chromatography, dynamic binding capacity at 5% breakthrough; ligand on HiTrap NHS agarose at 5.7 mg/mL-gel
[4] = biological target: Gamma globulin (Nichiyaku), used as a human IgG (human); assay: affinity chromatography, dynamic binding capacity at 5% breakthrough; ligand on HiTrap NHS agarose at 8.8 mg/mL-gel
[5] = biological target: Gamma globulin (Nichiyaku), used as a human IgG (human); assay: affinity chromatography, dynamic binding capacity at 5% breakthrough; ligand on HiTrap NHS agarose at 10.9 mg/mL-gel
[6] = biological target: Gamma globulin (Nichiyaku), used as a human IgG (human); assay: affinity chromatography, dynamic binding capacity at 5% breakthrough; ligand on HiTrap NHS agarose at 9.4 mg/mL-gel
[7] = biological target: Gamma globulin (Nichiyaku), used as a human IgG (human); assay: affinity chromatography, dynamic binding capacity at 5% breakthrough; ligand on HiTrap NHS agarose at 4.8 mg/mL-gel
[8] = biological target: human immunoglobulin G preparation separated from human plasma (Gammagard, Baxter) (human); assay: SPR (Biacore 3000), human IgG on CM5 chip, as in Example 3
[9] = biological target: Gamma globulin (Nichiyaku), used as a human IgG (human); assay: affinity chromatography, dynamic binding capacity at 5% breakthrough; ligand on HiTrap NHS agarose at 9.0 mg/mL-gel
[10] = biological target: Gamma globulin (Nichiyaku), used as a human IgG (human); assay: affinity chromatography, dynamic binding capacity at 5% breakthrough; ligand on HiTrap NHS agarose at 5.1 mg/mL-gel
[11] = biological target: Gamma globulin (Nichiyaku), used as a human IgG (human); assay: affinity chromatography, dynamic binding capacity at 5% breakthrough; ligand on HiTrap NHS agarose at 6.9 mg/mL-gel
[12] = biological target: Gamma globulin (Nichiyaku), used as a human IgG (human); assay: affinity chromatography, dynamic binding capacity at 5% breakthrough; ligand on HiTrap NHS agarose at 13.5 mg/mL-gel
[13] = biological target: Gamma globulin (Nichiyaku), used as a human IgG (human); assay: affinity chromatography, dynamic binding capacity at 5% breakthrough; ligand on HiTrap NHS agarose at 14.1 mg/mL-gel
[14] = biological target: Gamma globulin (Nichiyaku), used as a human IgG (human); assay: affinity chromatography, dynamic binding capacity at 5% breakthrough; ligand on HiTrap NHS agarose at 6.8 mg/mL-gel
[15] = biological target: Gamma globulin (Nichiyaku), used as a human IgG (human); assay: affinity chromatography, dynamic binding capacity at 5% breakthrough; ligand on HiTrap NHS agarose at 9.5 mg/mL-gel
[16] = biological target: Gamma globulin (Nichiyaku), used as a human IgG (human); assay: affinity chromatography, dynamic binding capacity at 5% breakthrough; ligand on HiTrap NHS agarose at 12.5 mg/mL-gel
[17] = biological target: Gamma globulin (Nichiyaku), used as a human IgG (human); assay: affinity chromatography, dynamic binding capacity at 5% breakthrough; ligand on cross-linked cellulose beads at 11.0 mg/mL-gel
[18] = biological target: Gamma globulin (Nichiyaku), used as a human IgG (human); assay: affinity chromatography, dynamic binding capacity at 5% breakthrough; ligand on HiTrap NHS agarose at 6.4 mg/mL-gel

Substance: C-G29A/S33E.5d (designed binder)
- Ka [1]: 6.3e+09 M⁻¹
- 5% antibody dBC [2]: 36.8 mg/mL-gel
- 5% antibody dBC [3]: 38.3 mg/mL-gel
- 5% antibody dBC [4]: 50.3 mg/mL-gel
- 5% antibody dBC [5]: 54.4 mg/mL-gel

Substance: C-K04R/K07R/G29A/S33L/K35R/K42R/K49R/K50R.3d (designed binder)
- Ka [1]: 2.1e+09 M⁻¹
- 5% antibody dBC [6]: 73.4 mg/mL-gel
- 5% antibody dBC [7]: 56.5 mg/mL-gel

Substance: C-K04R/K07R/G29A/S33L/K35R/K42R/K49R/K50R/(K58R except for C-terminal).3d (designed binder)
- Ka [8]: 2.2e+09 M⁻¹
- 5% antibody dBC [9]: 66.2 mg/mL-gel
- 5% antibody dBC [10]: 49.1 mg/mL-gel

Substance: C-K04R/K07R/G29A/S33R/K35R/K42R/K49Q/K50R.5d (designed binder)
- 5% antibody dBC [15]: 55.3 mg/mL-gel
- Ka [1]: 1.5e+09 M⁻¹
- 5% antibody dBC [16]: 61.3 mg/mL-gel
- 5% antibody dBC [17]: 46.1 mg/mL-gel
- 5% antibody dBC [18]: 45.8 mg/mL-gel

Results, then the substance that gave them:

- Ka [1]: 1.1e+09 M⁻¹
- 5% antibody dBC [11]: 41.8 mg/mL-gel
- 5% antibody dBC [12]: 62.1 mg/mL-gel
Substance: C-K04R/K07R/G29A/S33R/K35R/K42R/K49Q/K50R(C-terminal K58R).4d (designed binder)

- Ka [1]: 1e+09 M⁻¹
- 5% antibody dBC [13]: 62.1 mg/mL-gel
- 5% antibody dBC [14]: 42.6 mg/mL-gel
Substance: C-K04R/K07R/G29A/S33R/K35R/K42R/K49Q/K50R.4d (designed binder)

— patent publication US20160168209A1
